Test system: Escherichia coli TOP10
Assay: shrunken log2 fold change of peptide-encoding DNA abundance (4.5 h post-induction vs induction); higher = less antimicrobial activity (less host growth inhibition)
Settings: time post-induction: 4.5 h; library: site-saturation at positions 5, 18, 19, 20
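Also: peptides expressed intracellularly from a pBAD plasmid library in pooled LB shake-flask culture, induced with 0.3% L-arabinose, DNA abundance read by NGS, three biological replicates, DESeq2 with apeglm shrinkage.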

| Sequence | shrunken log2 fold change |
| --- | --- |
| RRIRCRPPRLPRPRPRPRGHPRP | 0.071 |
| RRIRERPPRLPRPRPRPYMCPRP | -0.216 |
| RRIRPRPPRLPRPRPRPSWPPRP | 0.359 |
| RRIRCRPPRLPRPRPRPLFNPRP | -0.665 |
| RRIRDRPPRLPRPRPRPFFLPRP | -0.261 |
| RRIRSRPPRLPRPRPRPIKDPRP | -0.224 |
| RRIRNRPPRLPRPRPRPDAQPRP | -0.173 |
| RRIRGRPPRLPRPRPRPTDWPRP | 0.8 |
| RRIRLRPPRLPRPRPRPAVDPRP | 0.163 |
| RRIRHRPPRLPRPRPRPATKPRP | -0.0317 |
| RRIRHRPPRLPRPRPRPPREPRP | 0.204 |
| RRIRCRPPRLPRPRPRPMNSPRP | -0.141 |
| RRIRKRPPRLPRPRPRPKTFPRP | -0.124 |
| RRIRFRPPRLPRPRPRPYESPRP | 0.0128 |
| RRIRIRPPRLPRPRPRPEMRPRP | -0.0182 |
| RRIRIRPPRLPRPRPRPVTFPRP | -0.00574 |
| RRIRFRPPRLPRPRPRPPNNPRP | -0.445 |
| RRIRMRPPRLPRPRPRPMENPRP | 0.76 |
| RRIRARPPRLPRPRPRPGDGPRP | 0.939 |
| RRIRKRPPRLPRPRPRPGPWPRP | 0.63 |
| RRIRYRPPRLPRPRPRPPIAPRP | 0.00572 |
| RRIRPRPPRLPRPRPRPYYFPRP | -0.427 |
| RRIRHRPPRLPRPRPRPQCEPRP | -0.122 |
| RRIRQRPPRLPRPRPRPELDPRP | 0.0346 |
| RRIRSRPPRLPRPRPRPKLFPRP | 0.172 |

| Sequence | shrunken log2 fold change |
| --- | --- |
| RRIRHRPPRLPRPRPRPARKPRP | -0.164 |
| RRIRVRPPRLPRPRPRPQMCPRP | 0.00424 |
| RRIRFRPPRLPRPRPRPAQIPRP | -0.00279 |
| RRIRSRPPRLPRPRPRPGADPRP | 0.463 |
| RRIRARPPRLPRPRPRPHMVPRP | -0.069 |
| RRIRQRPPRLPRPRPRPHEDPRP | 0.0107 |
| RRIRDRPPRLPRPRPRPPVKPRP | 0.421 |
| RRIRYRPPRLPRPRPRPLGLPRP | -0.126 |
| RRIRLRPPRLPRPRPRPWNGPRP | -0.217 |
| RRIRIRPPRLPRPRPRPIYAPRP | -0.758 |
| RRIRDRPPRLPRPRPRPNMHPRP | 1.35 |
| RRIRKRPPRLPRPRPRPVLPPRP | 0.338 |
| RRIRYRPPRLPRPRPRPDFPPRP | -0.48 |
| RRIRARPPRLPRPRPRPKIVPRP | -0.0715 |
| RRIRIRPPRLPRPRPRPFPSPRP | -0.953 |
| RRIRFRPPRLPRPRPRPSGLPRP | -0.237 |
| RRIRFRPPRLPRPRPRPQVYPRP | -0.167 |
| RRIRPRPPRLPRPRPRPCENPRP | -0.0133 |
| RRIRIRPPRLPRPRPRPPGHPRP | 0.11 |
| RRIRDRPPRLPRPRPRPAQKPRP | 0.0225 |
| RRIRDRPPRLPRPRPRPERTPRP | 0.12 |
| RRIRSRPPRLPRPRPRPSPIPRP | -0.467 |
| RRIRSRPPRLPRPRPRPSYPPRP | -0.736 |
| RRIRCRPPRLPRPRPRPSGGPRP | -0.0862 |
| RRIRERPPRLPRPRPRPGITPRP | -0.648 |

| Sequence | shrunken log2 fold change |
| --- | --- |
| RRIRPRPPRLPRPRPRPYVCPRP | -0.73 |
| RRIRIRPPRLPRPRPRPDRIPRP | 0.0297 |
| RRIRPRPPRLPRPRPRPGHPPRP | -0.12 |
| RRIRRRPPRLPRPRPRPKAMPRP | 0.431 |
| RRIRERPPRLPRPRPRPPWDPRP | -0.0062 |
| RRIRPRPPRLPRPRPRPNCKPRP | -0.048 |
| RRIRERPPRLPRPRPRPMCQPRP | -0.051 |
| RRIRWRPPRLPRPRPRPPCWPRP | 0.347 |
| RRIRDRPPRLPRPRPRPNHFPRP | -0.189 |
| RRIRFRPPRLPRPRPRPINVPRP | -0.195 |
| RRIRPRPPRLPRPRPRPKDKPRP | -0.125 |
| RRIRYRPPRLPRPRPRPHTAPRP | -0.57 |
| RRIRVRPPRLPRPRPRPPMAPRP | 0.228 |
| RRIRVRPPRLPRPRPRPNNWPRP | -0.183 |
| RRIRRRPPRLPRPRPRPFCIPRP | -0.174 |
| RRIRCRPPRLPRPRPRPCMNPRP | -0.627 |
| RRIRHRPPRLPRPRPRPEGWPRP | 0.695 |
| RRIRVRPPRLPRPRPRPSLWPRP | 0.183 |
| RRIRIRPPRLPRPRPRPDVLPRP | -1 |
| RRIRRRPPRLPRPRPRPFVCPRP | 0.191 |
| RRIRERPPRLPRPRPRPSFTPRP | -1.03 |
| RRIRMRPPRLPRPRPRPGGNPRP | 0.671 |
| RRIRTRPPRLPRPRPRPNGIPRP | 0.0301 |
| RRIRDRPPRLPRPRPRPLDEPRP | 0.034 |
| RRIRTRPPRLPRPRPRPPMNPRP | -0.399 |

| Sequence | shrunken log2 fold change |
| --- | --- |
| RRIRARPPRLPRPRPRPQAIPRP | 0.281 |
| RRIRGRPPRLPRPRPRPCHAPRP | 0.274 |
| RRIRKRPPRLPRPRPRPYEIPRP | -0.0117 |
| RRIRQRPPRLPRPRPRPLYMPRP | -0.198 |
| RRIRWRPPRLPRPRPRPWGYPRP | 0.0906 |
| RRIRERPPRLPRPRPRPQSNPRP | -0.172 |
| RRIRYRPPRLPRPRPRPSTLPRP | -0.853 |
| RRIRNRPPRLPRPRPRPVVFPRP | -0.0743 |
| RRIRWRPPRLPRPRPRPWDDPRP | -0.236 |
| RRIRWRPPRLPRPRPRPYHAPRP | -0.295 |
| RRIRSRPPRLPRPRPRPGLRPRP | 0.222 |
| RRIRCRPPRLPRPRPRPVRTPRP | 0.39 |
| RRIRPRPPRLPRPRPRPKHTPRP | -0.198 |
| RRIRWRPPRLPRPRPRPSDEPRP | -0.117 |
| RRIRHRPPRLPRPRPRPYRFPRP | -0.269 |
| RRIRGRPPRLPRPRPRPNQMPRP | 1.6 |
| RRIRIRPPRLPRPRPRPTAAPRP | 0.116 |
| RRIRYRPPRLPRPRPRPEWAPRP | 0.193 |
| RRIRARPPRLPRPRPRPHYFPRP | 0.0061 |
| RRIRLRPPRLPRPRPRPSMHPRP | -0.489 |
| RRIRVRPPRLPRPRPRPHKGPRP | -0.0569 |
| RRIRVRPPRLPRPRPRPTYHPRP | 1.5 |
| RRIRMRPPRLPRPRPRPHKAPRP | 0.000331 |
| RRIRARPPRLPRPRPRPPKKPRP | 0.342 |
| RRIRLRPPRLPRPRPRPKTLPRP | -0.0582 |

| Sequence | shrunken log2 fold change |
| --- | --- |
| RRIRSRPPRLPRPRPRPFVGPRP | -0.222 |
| RRIRARPPRLPRPRPRPAQKPRP | 0.0505 |
| RRIRCRPPRLPRPRPRPDSEPRP | 0.0197 |
| RRIRWRPPRLPRPRPRPCMPPRP | -0.425 |
| RRIRHRPPRLPRPRPRPQMIPRP | -0.139 |
| RRIRDRPPRLPRPRPRPIAGPRP | -0.0166 |
| RRIRQRPPRLPRPRPRPCKAPRP | -0.218 |
| RRIRDRPPRLPRPRPRPDILPRP | 0.111 |
| RRIRDRPPRLPRPRPRPMLMPRP | 0.348 |
| RRIRYRPPRLPRPRPRPDYSPRP | -0.245 |
| RRIRNRPPRLPRPRPRPTISPRP | -0.969 |
| RRIRNRPPRLPRPRPRPEYEPRP | -0.156 |
| RRIRQRPPRLPRPRPRPQLWPRP | -0.135 |
| RRIRNRPPRLPRPRPRPRLVPRP | 0.114 |
| RRIRHRPPRLPRPRPRPKNDPRP | -0.268 |
| RRIRLRPPRLPRPRPRPLPYPRP | 0.514 |
| RRIRARPPRLPRPRPRPTAWPRP | 0.863 |
| RRIRQRPPRLPRPRPRPCATPRP | -0.0476 |
| RRIRERPPRLPRPRPRPEQGPRP | 0.0117 |
| RRIRSRPPRLPRPRPRPEFLPRP | 0.278 |
| RRIRARPPRLPRPRPRPGMMPRP | 0.207 |
| RRIRTRPPRLPRPRPRPPDCPRP | 0.0461 |
| RRIRLRPPRLPRPRPRPSDKPRP | -0.179 |
| RRIRTRPPRLPRPRPRPADSPRP | 0.0603 |
| RRIRHRPPRLPRPRPRPYADPRP | -0.00783 |

— the supplement of paper PMC9112550, “Optimization of the antimicrobial peptide Bac7 by deep mutational scanning” (BMC Biology, 2022)
